Test results published in patent publication US20240141072A1 (published 2024).

T1: biotinylated human DLL3 protein expressed as a human IgG1 fusion protein (human, UniProt Q9NYJ7 27-492, limits assumed, biotinylated)
T1 sequence: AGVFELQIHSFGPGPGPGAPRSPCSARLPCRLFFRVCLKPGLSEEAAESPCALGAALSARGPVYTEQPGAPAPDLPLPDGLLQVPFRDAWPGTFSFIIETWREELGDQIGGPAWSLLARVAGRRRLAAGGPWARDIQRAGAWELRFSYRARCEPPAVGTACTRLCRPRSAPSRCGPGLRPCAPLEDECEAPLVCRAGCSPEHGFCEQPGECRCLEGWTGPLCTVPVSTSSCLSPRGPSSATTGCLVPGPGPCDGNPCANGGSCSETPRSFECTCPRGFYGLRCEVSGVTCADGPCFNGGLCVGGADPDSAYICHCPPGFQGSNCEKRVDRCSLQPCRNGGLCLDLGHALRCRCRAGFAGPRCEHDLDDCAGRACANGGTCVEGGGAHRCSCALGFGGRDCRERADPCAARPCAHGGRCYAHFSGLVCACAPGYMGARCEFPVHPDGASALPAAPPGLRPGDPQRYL


Target: T1, biotinylated human DLL3 protein …
Assay: Octet BLI, single 50 nM
Procedure, shortened: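 First, biotinylated DLL3-Fc fusion is loaded onto the tips. Next, conditioned medium carrying trispecific protein at known concentration is applied as analyte. Affinity is then derived from the recorded binding.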

Binder | Kd [nM]
4D03 anti-DLL3 trispecific protein (other, not shown: linker 1808, anti-albumin sdAb, linker 1808, anti-CD3 fragment, His6 1819) EVQLVESGGGLVQPGGSLTLSCAASGSSVRFLSMAWYRQAPGKKRELVAGISATGSTDYIDSVKGRFTISRDNAKNSVYLQMNSLRAEDTAVYYCYAYRWTRRYTYWGQGTLVTVSS | 26
4F02 anti-DLL3 trispecific protein (other, not shown: linker 1808, anti-albumin sdAb, linker 1808, anti-CD3 fragment, His6 1819) EVQLVESGGGLVQPGGSLTLSCAASGSTVSFLSMAWYRQAPGKKRELVAGISHDGSTDYIDSVKGRFTISRDNAKNSVYLQMNSLRAEDTAVYYCYAYRWTTRYTYWGQGTLVTVSS | 15
4E010 anti-DLL3 trispecific protein (other, not shown: linker 1808, anti-albumin sdAb, linker 1808, anti-CD3 fragment, His6 1819) EVQLVESGGGLVQPGGSLTLSCAASGSSVKFLSMAWYRQAPGKKRELVAGISADGSTDYIDSVKGRFTISRDNAKNSVYLQMNSLRAEDTAVYYCYAYRWRTRYTYWGQGTLVTVSS | 9
4G010 anti-DLL3 trispecific protein (other, not shown: linker 1808, anti-albumin sdAb, linker 1808, anti-CD3 fragment, His6 1819) EVQLVESGGGLVQPGGSLTLSCAASGHSVSFLSMAWYRQAPGKKRELVAGISADGSTDYIASVKGRFTISRDNAKNSVYLQMNSLRAEDTAVYYCYAYRWSTRYTYWGQGTLVTVSS | 9.9
4F010 anti-DLL3 trispecific protein (other, not shown: linker 1808, anti-albumin sdAb, linker 1808, anti-CD3 fragment, His6 1819) EVQLVESGGGLVQPGGSLTLSCAASGSSVSFLSMAWYRQAPGKKRELVAGISIDGSTDYIKSVKGRFTISRDNAKNSVYLQMNSLRAEDTAVYYCYAYRWTTRYRYWGQGTLVTVSS | 5.8
4E06 anti-DLL3 trispecific protein (other, not shown: linker 1808, anti-albumin sdAb, linker 1808, anti-CD3 fragment, His6 1819) EVQLVESGGGLVQPGGSLTLSCAASGTSVSFLSMAWYRQAPGKKRELVAGISADGSTDYIRSVKGRFTISRDNAKNSVYLQMNSLRAEDTAVYYCYAYRWTTRLTYWGQGTLVTVSS | 10
4D05 anti-DLL3 trispecific protein (other, not shown: linker 1808, anti-albumin sdAb, linker 1808, anti-CD3 fragment, His6 1819) EVQLVESGGGLVQPGGSLTLSCAASGSSSSFLSMAWYRQAPGKKRELVAGISADGSTVYIDSVKGRFTISRDNAKNSVYLQMNSLRAEDTAVYYCYAYRWTTRRTYWGQGTLVTVSS | 6.5
4G05 anti-DLL3 trispecific protein (other, not shown: linker 1808, anti-albumin sdAb, linker 1808, anti-CD3 fragment, His6 1819) EVQLVESGGGLVQPGGSLTLSCAASGSSVSILSMAWYRQAPGKKRELVAGISADGSTIYIDSVKGRFTISRDNAKNSVYLQMNSLRAEDTAVYYCYAYRWHTRYTYWGQGTLVTVSS | 9.7
4D04 anti-DLL3 trispecific protein (other, not shown: linker 1808, anti-albumin sdAb, linker 1808, anti-CD3 fragment, His6 1819) EVQLVESGGGLVQPGGSLTLSCAASGSSVSFLSIAWYRQAPGKKRELVAGISKDGSTDYIDSVKGRFTISRDNAKNSVYLQMNSLRAEDTAVYYCYAYRWTTRMTYWGQGTLVTVSS | 8.6
4F08 anti-DLL3 trispecific protein (other, not shown: linker 1808, anti-albumin sdAb, linker 1808, anti-CD3 fragment, His6 1819) EVQLVESGGGLVQPGGSLTLSCAASGSKVSFLSMAWYRQAPGKKRELVAGISADGSTAYIDSVKGRFTISRDNAKNSVYLQMNSLRAEDTAVYYCYAYRWRTRYTYWGQGTLVTVSS | 9
4H01 anti-DLL3 trispecific protein (other, not shown: linker 1808, anti-albumin sdAb, linker 1808, anti-CD3 fragment, His6 1819) EVQLVESGGGLVQPGGSLTLSCAASGSSVSFLSMAWYRQAPGKKRELVAGISANGSTDYYDSVKGRFTISRDNAKNSVYLQMNSLRAEDTAVYYCYAYRWRTRYTYWGQGTLVTVSS | 21
4E01 anti-DLL3 trispecific protein (other, not shown: linker 1808, anti-albumin sdAb, linker 1808, anti-CD3 fragment, His6 1819) EVQLVESGGGLVQPGGSLTLSCAASGSSVSFLSVAWYRQAPGKKRELVAGISRDGSTDYIDSVKGRFTISRDNAKNSVYLQMNSLRAEDTAVYYCYAYRWRTRYTYWGQGTLVTVSS | 11
4G03 anti-DLL3 trispecific protein (other, not shown: linker 1808, anti-albumin sdAb, linker 1808, anti-CD3 fragment, His6 1819) EVQLVESGGGLVQPGGSLTLSCAASGSSVKFLSMAWYRQAPGKKRELVAGISADGSTDYIHSVKGRFTISRDNAKNSVYLQMNSLRAEDTAVYYCYAYRWTRRYTYWGQGTLVTVSS | 20
4E08 anti-DLL3 trispecific protein (other, not shown: linker 1808, anti-albumin sdAb, linker 1808, anti-CD3 fragment, His6 1819) EVQLVESGGGLVQPGGSLTLSCAASGSSVKFLSMAWYRQAPGKKRELVAGISTDGSTDYIDSVKGRFTISRDNAKNSVYLQMNSLRAEDTAVYYCYAYKWTTRYTYWGQGTLVTVSS | 7.2
4D010 anti-DLL3 trispecific protein (other, not shown: linker 1808, anti-albumin sdAb, linker 1808, anti-CD3 fragment, His6 1819) EVQLVESGGGLVQPGGSLTLSCAASGSSVSFLSMAWYRQAPGKKRELVAGISADGSTDYIHSVKGRFTISRDNAKNSVYLQMNSLRAEDTAVYYCYAYRWRTRYTYWGQGTLVTVSS | 9.9
4F011 anti-DLL3 trispecific protein (other, not shown: linker 1808, anti-albumin sdAb, linker 1808, anti-CD3 fragment, His6 1819) EVQLVESGGGLVQPGGSLTLSCAASGSKVSFLSMAWYRQAPGKKRELVAGISADGSKDYIDSVKGRFTISRDNAKNSVYLQMNSLRAEDTAVYYCYAYRWTTRYTYWGQGTLVTVSS | 8.2

Binder | Kd [nM]
4G011 anti-DLL3 trispecific protein (other, not shown: linker 1808, anti-albumin sdAb, linker 1808, anti-CD3 fragment, His6 1819) EVQLVESGGGLVQPGGSLTLSCAASGSSVRFLSMAWYRQAPGKKRELVAGISADGSTDYIGSVKGRFTISRDNAKNSVYLQMNSLRAEDTAVYYCYAYRWSTRYTYWGQGTLVTVSS | 7.5
4E011 anti-DLL3 trispecific protein (other, not shown: linker 1808, anti-albumin sdAb, linker 1808, anti-CD3 fragment, His6 1819) EVQLVESGGGLVQPGGSLTLSCAASGSSVSFLSMAWYRQAPGKKRELVAGISATGSTDYIDSVKGRFTISRDNAKNSVYLQMNSLRAEDTAVYYCYAYRWSTRYTYWGQGTLVTVSS | 13
4D06 anti-DLL3 trispecific protein (other, not shown: linker 1808, anti-albumin sdAb, linker 1808, anti-CD3 fragment, His6 1819) EVQLVESGGGLVQPGGSLTLSCAASGSSVKFLSMAWYRQAPGKKRELVAGISPDGSTDYIDSVKGRFTISRDNAKNSVYLQMNSLRAEDTAVYYCYAYRWTTRYRYWGQGTLVTVSS | 7.5
4G09 anti-DLL3 trispecific protein (other, not shown: linker 1808, anti-albumin sdAb, linker 1808, anti-CD3 fragment, His6 1819) EVQLVESGGGLVQPGGSLTLSCAASGSRVSFLSMAWYRQAPGKKRELVAGISYDGSTDYIDSVKGRFTISRDNAKNSVYLQMNSLRAEDTAVYYCYAYRWTTRRTYWGQGTLVTVSS | 8.8
4E07 anti-DLL3 trispecific protein (other, not shown: linker 1808, anti-albumin sdAb, linker 1808, anti-CD3 fragment, His6 1819) EVQLVESGGGLVQPGGSLTLSCAASGSRVSFLSMAWYRQAPGKKRELVAGISADGSTMYIDSVKGRFTISRDNAKNSVYLQMNSLRAEDTAVYYCYAYRWTTRLTYWGQGTLVTVSS | 11
4F09 anti-DLL3 trispecific protein (other, not shown: linker 1808, anti-albumin sdAb, linker 1808, anti-CD3 fragment, His6 1819) EVQLVESGGGLVQPGGSLTLSCAASGSRVSFLSMAWYRQAPGKKRELVAGISADGSTDYIESVKGRFTISRDNAKNSVYLQMNSLRAEDTAVYYCYAYRWTTRYTYWGQGTLVTVSS | 8.8
4D08 anti-DLL3 trispecific protein (other, not shown: linker 1808, anti-albumin sdAb, linker 1808, anti-CD3 fragment, His6 1819) EVQLVESGGGLVQPGGSLTLSCAASGSSVNFLSMAWYRQAPGKKRELVAGISADGSTHYIDSVKGRFTISRDNAKNSVYLQMNSLRAEDTAVYYCYAYRWLTRYTYWGQGTLVTVSS | 5.9
4H03 anti-DLL3 trispecific protein (other, not shown: linker 1808, anti-albumin sdAb, linker 1808, anti-CD3 fragment, His6 1819) EVQLVESGGGLVQPGGSLTLSCAASGSRVSFLSMAWYRQAPGKKRELVAGISADGSTSYIDSVKGRFTISRDNAKNSVYLQMNSLRAEDTAVYYCYAYRWTTRYTYWGQGTLVTVSS | 13
4G07 anti-DLL3 trispecific protein (other, not shown: linker 1808, anti-albumin sdAb, linker 1808, anti-CD3 fragment, His6 1819) EVQLVESGGGLVQPGGSLTLSCAASGSSVSFLSVAWYRQAPGKKRELVAGISANGSTDYIDSVKGRFTISRDNAKNSVYLQMNSLRAEDTAVYYCYAYRWTNRYTYWGQGTLVTVSS | 18
4G02 anti-DLL3 trispecific protein (other, not shown: linker 1808, anti-albumin sdAb, linker 1808, anti-CD3 fragment, His6 1819) EVQLVESGGGLVQPGGSLTLSCAASGSSVKFLSMAWYRQAPGKKRELVAGISRDGSTDYIDSVKGRFTISRDNAKNSVYLQMNSLRAEDTAVYYCYAYRWTTRHTYWGQGTLVTVSS | 15
4F04 anti-DLL3 trispecific protein (other, not shown: linker 1808, anti-albumin sdAb, linker 1808, anti-CD3 fragment, His6 1819) EVQLVESGGGLVQPGGSLTLSCAASRSSVSFLSMAWYRQAPGKKRELVAGISTDGSTDYIDSVKGRFTISRDNAKNSVYLQMNSLRAEDTAVYYCYAYRWLTRYTYWGQGTLVTVSS | 9.8
4E09 anti-DLL3 trispecific protein (other, not shown: linker 1808, anti-albumin sdAb, linker 1808, anti-CD3 fragment, His6 1819) EVQLVESGGGLVQPGGSLTLSCAASGSSVSFLSSAWYRQAPGKKRELVAGISADGSTLYIDSVKGRFTISRDNAKNSVYLQMNSLRAEDTAVYYCYAYRWTTRSTYWGQGTLVTVSS | 9.1
4G08 anti-DLL3 trispecific protein (other, not shown: linker 1808, anti-albumin sdAb, linker 1808, anti-CD3 fragment, His6 1819) EVQLVESGGGLVQPGGSLTLSCAASGSSVRFLSMAWYRQAPGKKRELVAGISTDGSTDYIDSVKGRFTISRDNAKNSVYLQMNSLRAEDTAVYYCYAYRWTTRYRYWGQGTLVTVSS | 7.6
4G01 anti-DLL3 trispecific protein (other, not shown: linker 1808, anti-albumin sdAb, linker 1808, anti-CD3 fragment, His6 1819) EVQLVESGGGLVQPGGSLTLSCAASGSSVRFLSMAWYRQAPGKKRELVAGISADGSTVYIDSVKGRFTISRDNAKNSVYLQMNSLRAEDTAVYYCYAYRWPTRYTYWGQGTLVTVSS | 3.6
4H05 anti-DLL3 trispecific protein (other, not shown: linker 1808, anti-albumin sdAb, linker 1808, anti-CD3 fragment, His6 1819) EVQLVESGGGLVQPGGSLTLSCAASGSSVSRLSMAWYRQAPGKKRELVAGISARGSTDYIDSVKGRFTISRDNAKNSVYLQMNSLRAEDTAVYYCYAYRWTTRSTYWGQGTLVTVSS | 64
4F03 anti-DLL3 trispecific protein (other, not shown: linker 1808, anti-albumin sdAb, linker 1808, anti-CD3 fragment, His6 1819) EVQLVESGGGLVQPGGSLTLSCAASGSSVQFLSMAWYRQAPGKKRELVAGISYDGSTDYIDSVKGRFTISRDNAKNSVYLQMNSLRAEDTAVYYCYAYRWRTRYTYWGQGTLVTVSS | 12
